Series [1] addresses recombinant apple allergen Mal d 1 with a C-terminal polyhistidine-tag (apple (Malus domestica)) (UniProt Q9SYW3). In words: SDS-PAGE without added reducing agent + in-gel tryptic digestion with HPLC-MS/MS; purified protein after storage at -20 °C, freeze-thawing or freeze-drying (Tris, phosphate or urea buffer); denatured at 95 °C in SDS Laemmli sample buffer, Coomassie stain, band proportions by Fiji; band of higher molecular weight identified by peptides; dimer survives SDS, probably held by a disulfide bridge.

Series [2] deals with the molecule itself. The description is as above.

Usually stoichiometry N stands for a count of units in the complex or per binding partner. In the case of “recombinant apple allergen Mal d 1 with a C-terminal polyhistidine-tag (from UniProt Q9SYW3 1-159) (natural protein)”, the stoichiometry N in series [1] came out at 2.

B1: recombinant apple allergen Mal d 1 without polyhistidine-tag (natural protein, apple (Malus domestica), UniProt Q9SYW3 1-159, looked up)
chain: MGVYTFENEFTSEIPPSRLFKAFVLDADNLIPKIAPQAIKQAEILEGNGGPGTIKKITFGEGSQYGYVKHRIDSIDEASYSYSYTLIEGDALTDTIEKISYETKLVACGSGSTIKSISHYHTKGNIEIKEEHVKAGKEKAHGLFKLIESYLKDHPDAYN
notes: n = 159 residues used for the CD calculation; pET-28b(+) vector, NcoI/XhoI, insert 485 bp; also called r-Mal d 1; source: E. coli BL21 star (DE3)pLysS, purified (anion-exchange chromatography, TOYOPEARL SuperQ-650S or GigaCap Q-650M)
As to B1, in series [2], the “stoichiometry N” value was 2.

These data come from article PMC7838873, “Purification and Characterization of Recombinant Expressed Apple Allergen Mal d 1” (Methods and Protocols, 2020).
